The experiment concerns the target T1, V/A-ATPase D subunit, Thermus thermophilus (T. thermophilus, UniProt O87880 1-223).
T1 construct: V/A-ATPase D subunit (central rotor), Thermus thermophilus; also called part of the DF rotor; DF axis
T1 sequence: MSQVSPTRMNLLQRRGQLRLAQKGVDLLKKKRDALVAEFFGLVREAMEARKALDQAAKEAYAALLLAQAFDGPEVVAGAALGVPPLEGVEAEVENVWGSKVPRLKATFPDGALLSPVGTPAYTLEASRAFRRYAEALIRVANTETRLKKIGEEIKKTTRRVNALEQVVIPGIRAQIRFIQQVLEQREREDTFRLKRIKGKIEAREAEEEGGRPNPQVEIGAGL
Briefly: cryo-EM structure; nucleotide-free V/A-ATPase in nanodiscs, 4 uM enzyme mixed with an equal volume of x2 RB buffer (50 mM Tris-Cl pH 8.0, 100 mM KCl, 2 mM MgCl2, 5 mM PEP, 100 ug/ml PK, 20 mM ammonium sulfate) with ATP-Mg (low ATP, 60 s; or saturating ATP, 5 s or 30 s) at 25 °C; single-particle analysis, membrane domain subtracted, focused refinement of V1EG. As to conditions: both partners purified.

B1: V/A-ATPase F subunit, Thermus thermophilus (natural protein, T. thermophilus)
chain: MAVIADPETAQGFRLAGLEGYGASSAEEAQSLLETLVERGGYALVAVDEALLPDPERAVERLMRGRDLPVLLPIAGLKEAFQGHDVEGYMRELVRKTIGFDIKL
notes: V/A-ATPase F subunit (central rotor), Thermus thermophilus; also called part of the DF rotor; DF axis
As to B1, the binding result is recorded as “binds”.

(Values after article PMC9971907, “Cryo-EM analysis of V/A-ATPase intermediates reveals the transition of the ground-state structure to steady-state structures by sequential ATP binding” (The Journal of Biological Chemistry, 2023).)
